Consider 1 molecule from US20190330298A1 (WORG PHARMACEUTICALS ZHEJIANG, published 2019).

The test has as its target T1, HLA-DRB1*0301 molecule (HLA-DR3 MHC class II of DR3tg mice) (human).
T1 construct: whole, on cells; MHC class II expressed by DR3tg mice (no mouse MHC II); the responding T cells came from DR3 mice; also called MHC II
As to the kind of experiment: in vivo presentation test in DR3tg mice; binding inferred from IFN-γ response of peptide-specific T cells to isolated CD11c+ cells. The procedure:
DR3tg or DR2tg mice were injected with 100 μg of peptide in 100 μl PBS subcutaneously (s.c.) in the flank. Control animals received a s.c. injection of 100 μl PBS. After 2 hours, spleens were harvested and single-cell suspensions were made. CD11c⁺ cells were positively selected using CD11c microbeads according to the manufacturer's instructions (Miltenyi Biotec, Bergisch Gladbach, Germany). Average purities of >92% were reached. 5×10⁴ CD11c⁺ cells were co-cultured with 5×10⁴ CD4⁺ cells in round bottom 96-well plates in X-vivo 15 medium (supplemented with 2 mM L-glutamine, 50 U/mL penicillin and 50 U/mL streptomycin; Lonza). […] After 48 hours, supernatant of these co-cultures was collected and CD4⁺ T cell activation was analysed by IFN-γ ELISA (R&D Systems, Abingdon, UK). In a parallel experiment, CD4⁺ T cell responses towards peptide added in vitro were assessed to make sure the T cells recognize the peptides presented by the CD11c⁺ cells.
In FIG. 15 the ability of HIP-115NE3 (insoluble peptide) and that of its soluble version, HIP-115NE3-KKK, to be picked up and presented by MHC II molecules present on dendritic cells (DC) upon sc. injection in an in vivo setting (DR3tg mice) was compared. […] T cell activity response was measured by production of IFN-γ. […]

B1: HIP-115NE3-KKK (peptide)
peptide: H-KKKVIFKKISRDKSVTIYLGKKK-NH2
notes: Synthetic; HIP-115NE3 with KKK at both ends
Turning to B1, the binding result is reported as “binds”.
